Measured values: patent publication US20140170153A1 (Novo Nordisk, published 2014)
“And” between values parts separate entries of the source, which are not always exact repeats. Identical values can stand only once.

Assays:
[1] = molecular target: T1, human recombinant IL-21 (expressed in E. coli as the mature peptide); residues 30-162 of SEQ ID NO: 1 with an … (human, UniProt Q9HBE4 30-162); experiment: cell-based or functional assay
[2] = molecular target: T1, human recombinant IL-21 (expressed in …); experiment: cell-based or functional assay; remark: listed apart in the source
[3] = molecular target: T1, human recombinant IL-21 (expressed in …); experiment: SPR Biacore T200, calculated KD; Exp 2
Protocol: (§1) Anti-human Fc monoclonal antibodies from Biacore human Fc capture kit was immobilized onto flow cells of a CM4 sensor chip according to the manufacturer's instructions. The final immobilization level of capture antibody was approximately 2,500 RU in one experiment. […] Binding of hIL-21 protein was conducted by injecting analyte over all flow cells to allow for comparative analyses of binding to different captured anti-IL-21 antibodies relative to binding to the reference flow cell. hIL-21 protein was diluted serially 1:3 to 2-162 nM into running buffer, injected at 100 μl/min for 210 s and allowed to dissociate for 600 or 14000 s. The CM4 surface was regenerated after each injection cycle of analyte via two injections of 3M MgCl₂ at 50 μl/min. This regeneration step removed the anti-IL-21 antibody and any bound IL-21 from the immobilized capture antibody surface, and allowed for the subsequent binding of the next interaction sample pair.
(§2) No significant non-specific binding to the reference control surface was observed. Binding curves were processed by double referencing (subtraction of reference surface signals as well as blank buffer injections over captured anti-IL-21 antibodies). This allowed correction for instrument noise, bulk shift and drift during sample injections.

[4] = molecular target: T1, human recombinant IL-21 (expressed in …); experiment: SPR Biacore T200; mAb captured by anti-human Fc, hIL-21 analyte
Protocol: as §1, §2

[5] = molecular target: T1, human recombinant IL-21 (expressed in …); experiment: SPR Biacore T200, 25 C; mAb captured by anti-human Fc, hIL-21 analyte, 1:1 Langmuir; Exp 2
Protocol: as §1, §2

[6] = molecular target: T1, human recombinant IL-21 (expressed in …); experiment: crystal structure, Areaimol (CCP4)
Protocol: IL-21 (expressed in E. coli as the mature peptide; residues 30-162 of SEQ ID NO: 1 with an added N-terminal Methionine residue), in PBS buffer, pH 7.4 (4 tablets in 2 liter of water, GIBCO Cat. No. 18912-014 Invitrogen Corporation), and anti-IL-21 Fabs (comprising light chains and heavy chains corresponding to WT or mutants of SEQ ID No. 9 and 10, respectively, see example 6 and 14) formulated in PBS buffer, pH 7.4, were mixed in a 1:1 molar ratio. Crystals were grown with the sitting drop-technique with volumes according to Table 7. Total drop sizes were 0.2 or 0.3 μl, depending on the mixing ratio. Crystals were prepared for cryo-freezing by transferring of 3 μl of a cryo-solution, containing 75% of the precipitant solution and 25% glycerol, to the drop containing the crystal. Soakings were allowed for about one minute. The crystals were then fished into a MiTeGen MicroLoop™, flash frozen in liquid N2 and kept at a temperature of 100 K during data collection by a cryogenic N2 gas stream. Crystallographic data were collected at beam-line BL911-3 (Ursby et al., 2004) at MAX-lab, Lund, Sweden, to resolutions indicated in Table 8. Space group determination, integration and scaling of the data were made with the XDS software package (Kabsch, 2010). For the crystal complexes between hIL-21 and Fab56, Fab57 or Fab60, respectively, the Fab35/hIL-21 crystal structure were used as starting models for rigid body refinements in the Refmac5 software (Murshudov et al., 2011) of the CCP4 crystallography software suite (Bailey, 1994). Rigid body refinements were then followed by restrained crystallographic refinements, using the software programs Refmac5 and by computer graphics inspection of the electron density maps, model corrections and building using the Coot software program (Emsley et al., 2010). The procedure was cycled until no further significant improvements could be made to the model. Table 10, 11 and 13.
Table 9 show the calculated (by the software Areaimol (Lee & Richards, 1971, Saff & Kuijlaars, 1997)), average areas excluded in pair-wise interactions for the hIL-21/Fab56, hIL-21/Fab57, hIL-21/Fab59 and hIL-21/Fab60 complexes, respectively.

[7] = molecular target: T1, human recombinant IL-21 (expressed in …); experiment: SPR Biacore T200, calculated KD; Exp 1
Protocol: as §1, §2

[8] = molecular target: T1, human recombinant IL-21 (expressed in …); experiment: SPR Biacore T200, 25 C; mAb captured by anti-human Fc, hIL-21 analyte, 1:1 Langmuir; Exp 1
Protocol: as §1, §2

T1 sequence (Q9HBE4 other isoform, or with tags, fused parts or gaps): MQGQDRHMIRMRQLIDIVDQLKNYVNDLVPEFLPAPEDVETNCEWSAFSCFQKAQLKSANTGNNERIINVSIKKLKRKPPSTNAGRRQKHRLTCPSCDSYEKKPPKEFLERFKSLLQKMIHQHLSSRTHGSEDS

Binder	IC50 (nM) in B cell proliferation assay, Donor 1 [1] [nM]	IC50 (nM) in B cell proliferation assay, Donor 2 [1] [nM]	Bioactivity as % of RM (mAb37), NK-92 assay (alamarBlue) [2]	Kd [4] [nM]	Avr Area (average areas excluded in pairwise interactions) [6] [Å^2]	also measured
mAb61 (mAb37 variant, heavy chain D62E) (antibody, human IgG4 S228P, kappa, V domains shown, Human IgG4(S241P), kappa) VH: EVQLVESGGGLVKPGGSLRLSCAASGFIFSSYSMNWVRQAPGKGLEWVSSITSGSYYIHYAESVKGRFTISRDNAKNSLYLQMNSLRAEDTAVYYCVRERGWGYYGMDVWGQGTTVTVSS VL: AIQLTQSPSSLSASVGDRVTITCRASQDIDSALAWYQQKPGKAPKILIHDASSLESGVPSRFSGSGSGTDFTLTISSLQPEDFATYYCQQFNSYPYTFGQGTKLEIKR	0.22	0.21	86.2 % of RM (mAb37)	< 0.02	–	Kd [3]: < 0.015 nM; koff [5]: < 1e-05 s⁻¹; kon [5]: 660000 M⁻¹ s⁻¹ and 670000 M⁻¹ s⁻¹
mAb64 (mAb37 variant, light chain Q27N) (antibody, human IgG4 S228P, kappa, V domains shown) VH: EVQLVESGGGLVKPGGSLRLSCAASGFIFSSYSMNWVRQAPGKGLEWVSSITSGSYYIHYADSVKGRFTISRDNAKNSLYLQMNSLRAEDTAVYYCVRERGWGYYGMDVWGQGTTVTVSS VL: AIQLTQSPSSLSASVGDRVTITCRASNDIDSALAWYQQKPGKAPKILIHDASSLESGVPSRFSGSGSGTDFTLTISSLQPEDFATYYCQQFNSYPYTFGQGTKLEIKR	0.8	0.74	116 % of RM (mAb37)	–	–	–
Fab35 (Fab fragment of mAb14/mAb37) (Fab, V domains shown, also called anti-IL-21 Fab35) VH: EVQLVESGGGLVKPGGSLRLSCAASGFIFSSYSMNWVRQAPGKGLEWVSSITSGSYYIHYADSVKGRFTISRDNAKNSLYLQMNSLRAEDTAVYYCVRERGWGYYGMDVWGQGTTVTVSS VL: AIQLTQSPSSLSASVGDRVTITCRASQDIDSALAWYQQKPGKAPKILIHDASSLESGVPSRFSGSGSGTDFTLTISSLQPEDFATYYCQQFNSYPYTFGQGTKLEIKR	–	–	–	–	1060	–
mAb63 (mAb37 variant, light chain R24K) (antibody, human IgG4 S228P, kappa, V domains shown) VH: EVQLVESGGGLVKPGGSLRLSCAASGFIFSSYSMNWVRQAPGKGLEWVSSITSGSYYIHYADSVKGRFTISRDNAKNSLYLQMNSLRAEDTAVYYCVRERGWGYYGMDVWGQGTTVTVSS VL: AIQLTQSPSSLSASVGDRVTITCKASQDIDSALAWYQQKPGKAPKILIHDASSLESGVPSRFSGSGSGTDFTLTISSLQPEDFATYYCQQFNSYPYTFGQGTKLEIKR	0.16	0.25	92.1 % of RM (mAb37)	–	–	–
mAb62 (mAb37 variant, heavy chain K65R) (antibody, human IgG4 S228P, kappa, V domains shown, Human IgG4(S241P), kappa) VH: EVQLVESGGGLVKPGGSLRLSCAASGFIFSSYSMNWVRQAPGKGLEWVSSITSGSYYIHYADSVRGRFTISRDNAKNSLYLQMNSLRAEDTAVYYCVRERGWGYYGMDVWGQGTTVTVSS VL: AIQLTQSPSSLSASVGDRVTITCRASQDIDSALAWYQQKPGKAPKILIHDASSLESGVPSRFSGSGSGTDFTLTISSLQPEDFATYYCQQFNSYPYTFGQGTKLEIKR	–	0.23	73.2 % of RM (mAb37)	< 0.02	–	Kd [7]: < 0.017 nM; koff [8]: < 1e-05 s⁻¹; kon [8]: 560000 M⁻¹ s⁻¹ and 580000 M⁻¹ s⁻¹ and 600000 M⁻¹ s⁻¹
Fab57 (Fab35 with H: K65R; Fab fragment of mAb62) (Fab, V domains shown, also called aIL-21 Fab57) VH: EVQLVESGGGLVKPGGSLRLSCAASGFIFSSYSMNWVRQAPGKGLEWVSSITSGSYYIHYADSVRGRFTISRDNAKNSLYLQMNSLRAEDTAVYYCVRERGWGYYGMDVWGQGTTVTVSS VL: AIQLTQSPSSLSASVGDRVTITCRASQDIDSALAWYQQKPGKAPKILIHDASSLESGVPSRFSGSGSGTDFTLTISSLQPEDFATYYCQQFNSYPYTFGQGTKLEIKR	–	–	–	–	1070	–
Fab56 (Fab35 with H: D62E mutation; Fab fragment of mAb61) (Fab, V domains shown, also called aIL-21 Fab56) VH: EVQLVESGGGLVKPGGSLRLSCAASGFIFSSYSMNWVRQAPGKGLEWVSSITSGSYYIHYAESVKGRFTISRDNAKNSLYLQMNSLRAEDTAVYYCVRERGWGYYGMDVWGQGTTVTVSS VL: AIQLTQSPSSLSASVGDRVTITCRASQDIDSALAWYQQKPGKAPKILIHDASSLESGVPSRFSGSGSGTDFTLTISSLQPEDFATYYCQQFNSYPYTFGQGTKLEIKR	–	–	–	–	1070	–
mAb65 (mAb37 variant, light chain D30E) (antibody, human IgG4 S228P, kappa, V domains shown, Human IgG4(S241P), kappa) VH: EVQLVESGGGLVKPGGSLRLSCAASGFIFSSYSMNWVRQAPGKGLEWVSSITSGSYYIHYADSVKGRFTISRDNAKNSLYLQMNSLRAEDTAVYYCVRERGWGYYGMDVWGQGTTVTVSS VL: AIQLTQSPSSLSASVGDRVTITCRASQDIESALAWYQQKPGKAPKILIHDASSLESGVPSRFSGSGSGTDFTLTISSLQPEDFATYYCQQFNSYPYTFGQGTKLEIKR	0.49	0.19	96.8 % of RM (mAb37)	< 0.02	–	Kd [7]: < 0.019 nM; koff [8]: < 1e-05 s⁻¹; kon [8]: 520000 M⁻¹ s⁻¹ and 530000 M⁻¹ s⁻¹ and 540000 M⁻¹ s⁻¹
Fab60 (Fab35 with L, D30E mutation; Fab fragment of mAb65) (Fab, V domains shown, also called aIL-21 Fab60) VH: EVQLVESGGGLVKPGGSLRLSCAASGFIFSSYSMNWVRQAPGKGLEWVSSITSGSYYIHYADSVKGRFTISRDNAKNSLYLQMNSLRAEDTAVYYCVRERGWGYYGMDVWGQGTTVTVSS VL: AIQLTQSPSSLSASVGDRVTITCRASQDIESALAWYQQKPGKAPKILIHDASSLESGVPSRFSGSGSGTDFTLTISSLQPEDFATYYCQQFNSYPYTFGQGTKLEIKR	–	–	–	–	1100	–
Fab59 (Fab35 with L, Q27N mutation; Fab fragment of mAb64) (Fab, V domains shown, also called aIL-21 Fab59) VH: EVQLVESGGGLVKPGGSLRLSCAASGFIFSSYSMNWVRQAPGKGLEWVSSITSGSYYIHYADSVKGRFTISRDNAKNSLYLQMNSLRAEDTAVYYCVRERGWGYYGMDVWGQGTTVTVSS VL: AIQLTQSPSSLSASVGDRVTITCRASNDIDSALAWYQQKPGKAPKILIHDASSLESGVPSRFSGSGSGTDFTLTISSLQPEDFATYYCQQFNSYPYTFGQGTKLEIKR	–	–	–	–	1170	–
